Results reported in the supplement of paper PMC9112550, “Optimization of the antimicrobial peptide Bac7 by deep mutational scanning” (BMC Biology, 2022).
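Note: peptides expressed intracellularly from a pBAD plasmid library in pooled LB shake-flask culture, induced with 0.3% L-arabinose, DNA abundance read by NGS, three biological replicates, DESeq2 with apeglm shrinkage.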

The sequences below were run on Escherichia coli TOP10 (assay: shrunken log2 fold change of peptide-encoding DNA abundance (4.5 h post-induction vs induction); higher = less antimicrobial activity (less host growth inhibition)). Settings: time post-induction: 4.5 h; library: site-saturation at positions 5, 18, 19, 20.
RRIRPRPPRLPRPRPRPGMDPRP was tested, and the “shrunken log2 fold change” value was -0.00631. For RRIRWRPPRLPRPRPRPPETPRP, the “shrunken log2 fold change” value was 0.166. In the case of RRIRVRPPRLPRPRPRPYMYPRP, the “shrunken log2 fold change” value is reported as -0.588. RRIRWRPPRLPRPRPRPDFCPRP was tested, and the “shrunken log2 fold change” value was 0.247. For RRIRHRPPRLPRPRPRPQTWPRP, the “shrunken log2 fold change” value was -0.332. For RRIRSRPPRLPRPRPRPPDLPRP, the “shrunken log2 fold change” value was 0.543. In the case of RRIRRRPPRLPRPRPRPDWKPRP, the “shrunken log2 fold change” value is reported as 0.192. With RRIRFRPPRLPRPRPRPYVIPRP the “shrunken log2 fold change” value was -0.303. With RRIRHRPPRLPRPRPRPQKCPRP the “shrunken log2 fold change” value was -0.0302. RRIRSRPPRLPRPRPRPPIFPRP was tested, and the “shrunken log2 fold change” value was -0.576. With RRIRSRPPRLPRPRPRPDCQPRP the “shrunken log2 fold change” value was 0.117. RRIRLRPPRLPRPRPRPPIYPRP was tested, and the “shrunken log2 fold change” value was -0.15. In the case of RRIRIRPPRLPRPRPRPMKHPRP, the “shrunken log2 fold change” value is reported as -0.224. In the case of RRIRIRPPRLPRPRPRPTIQPRP, the “shrunken log2 fold change” value is reported as -0.334. RRIRWRPPRLPRPRPRPAWCPRP was tested, and the “shrunken log2 fold change” value was 0.469. In the case of RRIRKRPPRLPRPRPRPAIEPRP, the “shrunken log2 fold change” value is reported as 0.018. With RRIRCRPPRLPRPRPRPIVSPRP the “shrunken log2 fold change” value was -0.506. RRIRARPPRLPRPRPRPVIFPRP was tested, and the “shrunken log2 fold change” value was 0.0535. With RRIRQRPPRLPRPRPRPVQAPRP the “shrunken log2 fold change” value was -0.0131. With RRIRGRPPRLPRPRPRPIQVPRP the “shrunken log2 fold change” value was 0.118. For RRIRCRPPRLPRPRPRPMSPPRP, the “shrunken log2 fold change” value was -0.0415. RRIRKRPPRLPRPRPRPTFKPRP was tested, and the “shrunken log2 fold change” value was 0.0344. In the case of RRIRFRPPRLPRPRPRPYPAPRP, the “shrunken log2 fold change” value is reported as -0.512. For RRIRIRPPRLPRPRPRPMRWPRP, the “shrunken log2 fold change” value was -0.0141. RRIRCRPPRLPRPRPRPVSAPRP was tested, and the “shrunken log2 fold change” value was 0.15. With RRIRSRPPRLPRPRPRPYCFPRP the “shrunken log2 fold change” value was -0.544. For RRIRIRPPRLPRPRPRPWFPPRP, the “shrunken log2 fold change” value was -0.349. In the case of RRIRFRPPRLPRPRPRPMVHPRP, the “shrunken log2 fold change” value is reported as -0.468. RRIRWRPPRLPRPRPRPIYTPRP was tested, and the “shrunken log2 fold change” value was -0.412. In the case of RRIRKRPPRLPRPRPRPVHAPRP, the “shrunken log2 fold change” value is reported as 0.464. In the case of RRIRDRPPRLPRPRPRPRPMPRP, the “shrunken log2 fold change” value is reported as 0.583. For RRIRSRPPRLPRPRPRPAIEPRP, the “shrunken log2 fold change” value was 0.00515. RRIRFRPPRLPRPRPRPPCYPRP was tested, and the “shrunken log2 fold change” value was -0.227. RRIRDRPPRLPRPRPRPLKCPRP was tested, and the “shrunken log2 fold change” value was 0.055. With RRIRRRPPRLPRPRPRPMTAPRP the “shrunken log2 fold change” value was 0.0357. With RRIRDRPPRLPRPRPRPRGRPRP the “shrunken log2 fold change” value was 0.614. With RRIRNRPPRLPRPRPRPFFYPRP the “shrunken log2 fold change” value was -0.242. In the case of RRIRDRPPRLPRPRPRPDLWPRP, the “shrunken log2 fold change” value is reported as -0.0295. With RRIRPRPPRLPRPRPRPRTFPRP the “shrunken log2 fold change” value was 0.23. RRIRLRPPRLPRPRPRPGHMPRP was tested, and the “shrunken log2 fold change” value was -0.236. RRIRMRPPRLPRPRPRPVDGPRP was tested, and the “shrunken log2 fold change” value was 1.08. RRIRKRPPRLPRPRPRPYHQPRP was tested, and the “shrunken log2 fold change” value was -0.231. In the case of RRIRFRPPRLPRPRPRPACNPRP, the “shrunken log2 fold change” value is reported as -0.26. For RRIRPRPPRLPRPRPRPLPMPRP, the “shrunken log2 fold change” value was 0.53. For RRIRSRPPRLPRPRPRPISRPRP, the “shrunken log2 fold change” value was -0.416. In the case of RRIRSRPPRLPRPRPRPSVIPRP, the “shrunken log2 fold change” value is reported as -0.602. With RRIRMRPPRLPRPRPRPADEPRP the “shrunken log2 fold change” value was -0.0062. RRIRPRPPRLPRPRPRPGDCPRP was tested, and the “shrunken log2 fold change” value was 0.482. For RRIRKRPPRLPRPRPRPRKAPRP, the “shrunken log2 fold change” value was 0.384. RRIRMRPPRLPRPRPRPMTDPRP was tested, and the “shrunken log2 fold change” value was 0.0744. For RRIRTRPPRLPRPRPRPFAHPRP, the “shrunken log2 fold change” value was -0.039. In the case of RRIRFRPPRLPRPRPRPEYMPRP, the “shrunken log2 fold change” value is reported as -0.421. For RRIRIRPPRLPRPRPRPGPNPRP, the “shrunken log2 fold change” value was -0.113. For RRIRFRPPRLPRPRPRPHQQPRP, the “shrunken log2 fold change” value was 0.0921. With RRIRVRPPRLPRPRPRPDFSPRP the “shrunken log2 fold change” value was -0.373. For RRIRMRPPRLPRPRPRPGLEPRP, the “shrunken log2 fold change” value was 1.61. With RRIRCRPPRLPRPRPRPACSPRP the “shrunken log2 fold change” value was -0.0823. With RRIRGRPPRLPRPRPRPYNAPRP the “shrunken log2 fold change” value was -0.332. RRIRFRPPRLPRPRPRPAFPPRP was tested, and the “shrunken log2 fold change” value was 0.00578. RRIRLRPPRLPRPRPRPSMCPRP was tested, and the “shrunken log2 fold change” value was -0.196. For RRIRPRPPRLPRPRPRPHIRPRP, the “shrunken log2 fold change” value was -0.0938. In the case of RRIRGRPPRLPRPRPRPWQKPRP, the “shrunken log2 fold change” value is reported as 0.09. In the case of RRIRGRPPRLPRPRPRPYYHPRP, the “shrunken log2 fold change” value is reported as -0.204. With RRIRIRPPRLPRPRPRPWMHPRP the “shrunken log2 fold change” value was 0.0105. For RRIRERPPRLPRPRPRPYRLPRP, the “shrunken log2 fold change” value was -0.102. In the case of RRIRWRPPRLPRPRPRPSQMPRP, the “shrunken log2 fold change” value is reported as -0.681. RRIRQRPPRLPRPRPRPNMCPRP was tested, and the “shrunken log2 fold change” value was -0.195. In the case of RRIRPRPPRLPRPRPRPLFIPRP, the “shrunken log2 fold change” value is reported as -0.459. RRIRTRPPRLPRPRPRPEFAPRP was tested, and the “shrunken log2 fold change” value was 0.0178. With RRIRVRPPRLPRPRPRPNEVPRP the “shrunken log2 fold change” value was 0.00656. RRIRQRPPRLPRPRPRPCAVPRP was tested, and the “shrunken log2 fold change” value was 0.0208. With RRIRFRPPRLPRPRPRPRLQPRP the “shrunken log2 fold change” value was 0.221. In the case of RRIRTRPPRLPRPRPRPHAIPRP, the “shrunken log2 fold change” value is reported as 0.103. For RRIRLRPPRLPRPRPRPTWMPRP, the “shrunken log2 fold change” value was -0.0614. RRIRLRPPRLPRPRPRPKPPPRP was tested, and the “shrunken log2 fold change” value was 0.586.
